Measurements: the supplement of paper PMC9233669
Fewer inactive variants are shown than the library holds.

What was measured:
biotinyl-Phe-oxazolone = assay: self-aminoacylation, catalytic enhancement (BFO) (fold over background); higher = more active; k-Seq, kA / k0A0; sequences stand for … in GGGAAUGGAUCCACAUCUACGAAUUC…UUCACUGCAGACUUGACGAAGCUG
How it was run: (§1)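 The uncatalyzed rate is the low-activity peak of a bimodal Gaussian fit, and catalytic enhancement is median kA divided by it. The kA values came from pseudo-first-order fits, with 1000 bootstraps, of per-sequence fraction reacted measured by streptavidin capture, triplicate qPCR and Illumina sequencing. Mutagenized RNA pools with a 21-nt variable region (0.43 μM) were reacted with each biotinyl-aminoacyl-oxazolone at 2–1250 μM in 50 μL HEPES/NaCl/KCl/MgCl2/CaCl2 buffer with 5% acetonitrile, pH 6.9–7.0, for 90 minutes at room temperature.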

biotinyl-Ile-oxazolone = assay: self-aminoacylation, catalytic enhancement (BIO) (fold over background); higher = more active; k-Seq, kA / k0A0; sequences stand for … in GGGAAUGGAUCCACAUCUACGAAUUC…UUCACUGCAGACUUGACGAAGCUG
How it was run: as §1

biotinyl-Met-oxazolone = assay: self-aminoacylation, catalytic enhancement (BMO) (fold over background); higher = more active; k-Seq, kA / k0A0; sequences stand for … in GGGAAUGGAUCCACAUCUACGAAUUC…UUCACUGCAGACUUGACGAAGCUG
How it was run: as §1

biotinyl-Val-oxazolone = assay: self-aminoacylation, catalytic enhancement (BVO) (fold over background); higher = more active; k-Seq, kA / k0A0; sequences stand for … in GGGAAUGGAUCCACAUCUACGAAUUC…UUCACUGCAGACUUGACGAAGCUG
How it was run: as §1

biotinyl-Leu-oxazolone = assay: self-aminoacylation, catalytic enhancement (BLO) (fold over background); higher = more active; k-Seq, kA / k0A0; sequences stand for … in GGGAAUGGAUCCACAUCUACGAAUUC…UUCACUGCAGACUUGACGAAGCUG
How it was run: as §1

biotinyl-Trp-oxazolone = assay: self-aminoacylation, catalytic enhancement (BWO) (fold over background); higher = more active; k-Seq, kA / k0A0; sequences stand for … in GGGAAUGGAUCCACAUCUACGAAUUC…UUCACUGCAGACUUGACGAAGCUG
How it was run: as §1

| Sequence | self-aminoacylation (biotinyl-Phe-oxazolone) | self-aminoacylation (biotinyl-Ile-oxazolone) | self-aminoacylation (biotinyl-Met-oxazolone) | self-aminoacylation (biotinyl-Val-oxazolone) | self-aminoacylation (biotinyl-Leu-oxazolone) | self-aminoacylation (biotinyl-Trp-oxazolone) |
| --- | --- | --- | --- | --- | --- | --- |
| CCACACUUCAGGCAAUCAGUC [Fam1B.1 aminoacylation ribozyme variant] | 0.955 | 0.658 | 0.724 | 1.05 | 0.636 | 0.796 |
| CCACACUUCAGGCAAUCGGCC [Fam1B.1 aminoacylation ribozyme variant] | 13.1 | 2.61 | 2.15 | 3.89 | 4.67 | 3.69 |
| CCACACUUCAGGCAAUCGGUG [Fam1B.1 aminoacylation ribozyme variant] | 36.7 | 3.23 | 5.39 | 3.41 | 7.5 | 4.89 |
| CCACACUUCAGGCAAUGGGUC [Fam1B.1 aminoacylation ribozyme variant] | 0.992 | 0.733 | 0.802 | 0.722 | 0.702 | 0.952 |
| CCACACUUCAGGCAAUUGGUC [Fam1B.1 aminoacylation ribozyme variant] | 0.558 | 0.887 | 0.647 | 0.83 | 0.823 | 0.556 |
| CCACACUUCAGGCAUUCGGUC [Fam1B.1 aminoacylation ribozyme variant] | 1.09 | 2.2 | 1.88 | 2.48 | 2.2 | 2.27 |
| CCACACUUCAGGCCAUCGGUC [Fam1B.1 aminoacylation ribozyme variant] | 7.44 | 2.37 | 1.94 | 2.49 | 1.77 | 1.69 |
| CCACACUUCAUGCAAUCGGUC [Fam1B.1 aminoacylation ribozyme variant] | 0.866 | 0.819 | 0.687 | 0.9 | 0.693 | 0.689 |
| CCACACUUCAUGCAAUCUGUC [Fam1B.1 aminoacylation ribozyme variant] | 0.605 | 0.454 | 0.391 | 0.479 | 0.35 | 0.277 |
| CCACACUUCAUGCAAUUGGUC [Fam1B.1 aminoacylation ribozyme variant] | 0.619 | 0.658 | 0.764 | 0.791 | 0.627 | 0.43 |
| CCACACUUCAUGCCAUCGGUC [Fam1B.1 aminoacylation ribozyme variant] | 0.488 | 0.957 | 0.691 | 1.1 | 0.921 | 1.59 |
| CCACACUUCAUGCUAUCGGUC [Fam1B.1 aminoacylation ribozyme variant] | 0.838 | 0.834 | 0.626 | 0.931 | 0.69 | 0.714 |
| CCACACUUCCACCAAUCGGUC [Fam1B.1 aminoacylation ribozyme variant] | 0.478 | 0.908 | 0.51 | 0.962 | 0.643 | 0.847 |
| CCACACUUCCAGCAUUCGGUC [Fam1B.1 aminoacylation ribozyme variant] | 1.12 | 2.48 | 2.05 | 2.81 | 2.42 | 2.58 |
| CCACACUUCCAGCGAUCGGUC [Fam1B.1 aminoacylation ribozyme variant] | 1.52 | 1.78 | 1.68 | 1.97 | 1.51 | 1.46 |
| CCACACUUCGAACAAUCGGUC [Fam1B.1 aminoacylation ribozyme variant] | 1.11 | 0.833 | 0.98 | 0.957 | 0.862 | 0.84 |
| CCACACUUCGAGAAAUCGGUC [Fam1B.1 aminoacylation ribozyme variant] | 0.511 | 0.951 | 1.18 | 0.976 | 1.12 | 0.812 |
| CCACACUUCGAGCAAUCGCUC [Fam1B.1 aminoacylation ribozyme variant] | 5.11 | 1.98 | 2.13 | 2.62 | 1.71 | 2.71 |
| CCACACUUCGAGCAAUCGUUC [Fam1B.1 aminoacylation ribozyme variant] | 0.683 | 0.516 | 0.412 | 0.569 | 0.493 | 0.469 |
| CCACACUUCUAGCAAUCGCUC [Fam1B.1 aminoacylation ribozyme variant] | 1.02 | 1.11 | 0.72 | 1.04 | 0.829 | 0.453 |
| CCACACUUCUAGCAAUCGUUC [Fam1B.1 aminoacylation ribozyme variant] | 1.04 | 0.767 | 0.511 | 1.01 | 0.558 | 0.481 |
| CCACACUUCUCGCAAUCGGUC [Fam1B.1 aminoacylation ribozyme variant] | 0.867 | 1.06 | 0.889 | 1.09 | 1.04 | 0.888 |
| CCACACUUGAAGCAAUCGCUC [Fam1B.1 aminoacylation ribozyme variant] | 0.891 | 1.36 | 1.3 | 1.59 | 1.52 | 1.31 |
| CCACACUUGAAGCAAUCGGAC [Fam1B.1 aminoacylation ribozyme variant] | 0.658 | 0.951 | 0.961 | 1.18 | 0.869 | 0.769 |
| CCACACUUGAAGCAAUCGGUG [Fam1B.1 aminoacylation ribozyme variant] | 19.1 | 2.21 | 3.04 | 2.39 | 4.29 | 3.48 |
| CCACACUUGAAGCAAUCGGUU [Fam1B.1 aminoacylation ribozyme variant] | 0.703 | 1.18 | 1.32 | 1.45 | 1.14 | 2.47 |

| Sequence | self-aminoacylation (biotinyl-Phe-oxazolone) | self-aminoacylation (biotinyl-Ile-oxazolone) | self-aminoacylation (biotinyl-Met-oxazolone) | self-aminoacylation (biotinyl-Val-oxazolone) | self-aminoacylation (biotinyl-Leu-oxazolone) | self-aminoacylation (biotinyl-Trp-oxazolone) |
| --- | --- | --- | --- | --- | --- | --- |
| CCACACUUGAAGCAAUGGGUC [Fam1B.1 aminoacylation ribozyme variant] | 1.26 | 0.99 | 0.696 | 0.811 | 0.739 | 0.833 |
| CCACACUUGCAGCAAUCGGUC [Fam1B.1 aminoacylation ribozyme variant] | 1.07 | 1.63 | 1.2 | 1.64 | 1.33 | 1.23 |
| CCACACUUUAAGCAAUCGGUG [Fam1B.1 aminoacylation ribozyme variant] | 22.9 | 2.93 | 3.89 | 2.38 | 5.4 | 3.9 |
| CCACACUUUAAGCAGUCGGUC [Fam1B.1 aminoacylation ribozyme variant] | 1.16 | 0.858 | 0.755 | 0.946 | 0.926 | 0.623 |
| CCACACUUUAAGCCAUCGGUC [Fam1B.1 aminoacylation ribozyme variant] | 0.541 | 0.964 | 0.743 | 0.879 | 0.755 | 0.783 |
| CCACACUUUAGGCAAUCGGUC [Fam1B.1 aminoacylation ribozyme variant] | 0.648 | 1.12 | 0.96 | 1.01 | 0.831 | 0.713 |
| CCACACUUUUAGCAAUCGGUC [Fam1B.1 aminoacylation ribozyme variant] | 0.974 | 0.874 | 0.767 | 0.942 | 0.845 | 0.678 |
| CCACAGCUCAAGCAAUCGGUC [Fam1B.1 aminoacylation ribozyme variant] | 3.21 | 1.18 | 1.05 | 1.29 | 1.16 | 2.35 |
| CCACAGUUAAAGCAAUCGGUC [Fam1B.1 aminoacylation ribozyme variant] | 0.915 | 0.832 | 0.836 | 0.98 | 0.963 | 0.869 |
| CCACAGUUCAAGCAAUCGGCC [Fam1B.1 aminoacylation ribozyme variant] | 0.924 | 2.11 | 2.66 | 3.95 | 2.6 | 3.18 |
| CCACAGUUCAAGCAUUCGGUC [Fam1B.1 aminoacylation ribozyme variant] | 1.61 | 1.88 | 1.84 | 2.33 | 2.04 | 1.86 |
| CCACAGUUUAAGCAAUCGGUC [Fam1B.1 aminoacylation ribozyme variant] | 0.825 | 0.82 | 0.857 | 0.758 | 0.786 | 0.708 |
| CCACAUGUCAAGCAAUCGGUC [Fam1B.1 aminoacylation ribozyme variant] | 1.08 | 1.22 | 1.13 | 1.33 | 1.27 | 0.915 |
| CCACAUUUCAAGCAGUCGGUC [Fam1B.1 aminoacylation ribozyme variant] | 0.868 | 1.15 | 0.9 | 1.15 | 0.899 | 0.803 |
| CCACAUUUCAAUCAAUCGGUC [Fam1B.1 aminoacylation ribozyme variant] | 12.7 | 1.14 | 1.09 | 1.14 | 1.07 | 6.51 |
| CCACCAUUCAAGCAAUCGGUC [Fam1B.1 aminoacylation ribozyme variant] | 1.89 | 1.16 | 0.934 | 1.3 | 0.958 | 1.4 |
| CCACCCAUCAAGCAAUCGGUC [Fam1B.1 aminoacylation ribozyme variant] | 0.916 | 1.06 | 0.85 | 1.07 | 0.876 | 0.951 |
| CCACCCUUCAAGCAAUCGGUG [Fam1B.1 aminoacylation ribozyme variant] | 63.7 | 4.86 | 7.37 | 4.61 | 10.2 | 6.85 |
| CCACCCUUCAAGCAAUCGGUU [Fam1B.1 aminoacylation ribozyme variant] | 2.79 | 1.47 | 1.42 | 1.67 | 1.91 | 4.11 |
| CCACCCUUCAAGCAAUUGGUC [Fam1B.1 aminoacylation ribozyme variant] | 1.33 | 0.814 | 0.907 | 0.984 | 0.814 | 1.04 |
| CCACCCUUCCAGCAAUCGGUC [Fam1B.1 aminoacylation ribozyme variant] | 1.15 | 1.41 | 1.02 | 1.94 | 1.04 | 1.51 |
| CCACGCUUCAAGCAAUCGCUC [Fam1B.1 aminoacylation ribozyme variant] | 0.605 | 0.955 | 0.927 | 1.42 | 0.929 | 1.13 |
| CCACGCUUCAAGCAAUCGGGC [Fam1B.1 aminoacylation ribozyme variant] | 1.35 | 1.08 | 1.25 | 2.04 | 0.924 | 1.41 |
| CCACGCUUCAAGCAAUCGGUA [Fam1B.1 aminoacylation ribozyme variant] | 1.37 | 0.724 | 0.873 | 1.14 | 0.943 | 1.13 |
| CCACGCUUCAAGCAUUCGGUC [Fam1B.1 aminoacylation ribozyme variant] | 0.774 | 1.24 | 1.06 | 1.93 | 1.11 | 1.31 |
